Measured values taken from patent US6759384.
pKi: −log10 of the molar value. Non-standard residues stand in square brackets, D forms with d. *: point of attachment. 2Nal = N[C@@H](Cc1ccc2ccccc2c1)C(=O)O; Chg = N[C@H](C(=O)O)C1CCCCC1; Tos = Cc1ccc(S(=O)(=O)*)cc1; Cbz = O=C(OCc1ccccc1)*

molecular target: human factor Xa (Enzyme Research Laboratories, Inc.) (human) (UniProt P00742); test: cell-based or functional assay
Sequence (P00742 41-179 limits assumed, chain 1 of 2): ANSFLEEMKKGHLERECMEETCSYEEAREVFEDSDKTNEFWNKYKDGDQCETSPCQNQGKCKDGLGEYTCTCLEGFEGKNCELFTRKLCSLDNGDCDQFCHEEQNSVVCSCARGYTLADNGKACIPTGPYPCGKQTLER
Sequence (P00742 235-488 limits assumed, chain 2 of 2): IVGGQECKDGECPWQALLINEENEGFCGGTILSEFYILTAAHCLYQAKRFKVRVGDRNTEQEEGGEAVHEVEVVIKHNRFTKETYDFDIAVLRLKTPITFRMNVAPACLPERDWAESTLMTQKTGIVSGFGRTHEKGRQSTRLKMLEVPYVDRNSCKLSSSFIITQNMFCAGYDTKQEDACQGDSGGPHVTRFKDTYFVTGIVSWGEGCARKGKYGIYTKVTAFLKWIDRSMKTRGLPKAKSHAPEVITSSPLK

Row | EC50 (concentration giving 50% inhibition of coagulation), in vitro dilute prothrombin time assay, pooled human plasma | Substance
1 | 0.0025 µM | Ac-Y-Chg-R-NH2 (peptide)
2 | 0.14 µM | Ac-[2Nal][Chg]RLP-NH2

molecular target: human factor Xa (Enzyme Research Laboratories, Inc.) (human) (UniProt P00742); test: chromogenic FXa inhibition

Row | pKi | Substance
3 | > 4.00 | Ac-Y-Chg-R-NH2 (peptide)
4 | > 4.00 | Ac-[2Nal][Chg]RLP-NH2
5 | > 4.00 | Ac-pAph-Chg-Dab(CH ═N(CH3)2)-Leu-Pro-NH2 (peptide)
6 | > 4.00 | Ac-pAph-Chg-Dap(CH═N(CH3)2)-Leu-Pro-NH2 (peptide)
7 | > 4.00 | Ac-pAph-Chg-NH-1-[3(N-methylpyridyl)]-1-(methylacetate)ethyl (peptide)
8 | > 4.00 | Ac-pAph-Chg-NH-(4-amidinobenzyl) (peptide)
9 | > 4.00 | Ac-pAph-Chg-NH-(4-trimethyl-ammonium benzyl) (peptide)
10 | > 4.00 | Ac-pAph-Chg-NH-[1-(1-methyl-4-pyridinium)-2-hydroxy]ethyl (peptide)
11 | > 4.00 | Ac-pAph-Chg-NH-[1-(1-methyl-4-pyridinium)ethyl (peptide)
12 | > 4.00 | Ac-pAph-Chg-NH[4-(1-methyl-pyridinium)methyl] (peptide)
13 | > 4.00 | Ac-pAph-Chg-Pal(3)(CH2COOH)-NH2 (peptide)
14 | > 4.00 | Ac-pAph-Chg-PalMe(3)-Leu-Pro-NH2 (peptide)
15 | > 4.00 | Ac-pAph-Chg-PalMe(3)-NH2 (peptide)
16 | > 4.00 | Ac-pAph-Chg-PalMe(3)-NH(1-methoxycarbonyl)-1-cyclohexyl (peptide)
17 | > 4.00 | Ac-pAph-Chg-PalMe(3)-NH-(1-methoxycarbonyl)-1-cyclopentyl (peptide)
18 | > 4.00 | Ac-pAph-Chg-PalMe(3)-NH-(3-thienyl-2-carboxylic acid methyl ester) (peptide)
19 | > 4.00 | Ac-pAph-Chg-PalMe(3)-NH-(4-carboxycyclohexyl) methyl (peptide)
20 | > 4.00 | Ac-pAph-Chg-PalMe(3)-NH-(4-methoxycarbonyl-cyclohexyl)methyl (peptide)
21 | > 4.00 | Ac-pAph-Chg-PalMe(3)-Pen(CH2COOH)-Pro-NH2 (peptide)
22 | > 4.00 | Ac-pAph-Chg-R-L-P-NH2 (peptide)
23 | > 4.00 | Ac-pAph-Pgl-PalMe(3)-NH2 (peptide)
24 | > 4.00 | Ac-y-I-R-NH2 (peptide)
25 | > 4.00 | Alloc-D-pAph-Chg-Arg-Leu-Pro-NH2 (peptide)
26 | > 4.00 | Alloc-pAph-Chg-NH-[4-(-methylpyridinium)-methyl] (peptide)
27 | > 4.00 | Alloc-pAph-Chg-PalMe(3)-NH2 (peptide)
28 | > 4.00 | Alloc-pAph-Chg-PalMe(3)-Pen(CH2COOH)-Pro-NH2 (peptide)

Row | pKi | Substance
29 | > 4.00 | CF3C(O)-(iBu)Tyr-Chg-Arg-OH (peptide)
30 | > 4.00 | Caff-I-R-NH2 (peptide)
31 | > 4.00 | Cbz-I-R-NH2 (peptide)
32 | > 4.00 | Cbz-Ile-Arg-Leu-NH2
33 | > 4.00 | ClCH2CO-Y-I-R-NH2 (peptide)
34 | > 4.00 | Nal(2)-Cha-R-D(O-Allyl)-NH2 (peptide)
35 | > 4.00 | Nal(2)-Cha-R-D(O-Allyl)-Sar-NH2 (peptide)
36 | > 4.00 | Nal(2)-Chg-R-L-P-NH2 (peptide)
37 | > 4.00 | Pgl(OH)-I-R-L-NH2 (peptide)
38 | > 4.00 | Ph-C(NOCH2Ph)-CO-I-R-NH2 (peptide)
39 | > 4.00 | Tfa-(iBu)F(pNH2)-Chg-R-NH2 (peptide)
40 | > 4.00 | Tfa-(iBu)Nal(2)-Chg-R-L-P-NH2 (peptide)
41 | > 4.00 | Tfa-(iBu)Y-Chg-R-NH2 (peptide)
42 | > 4.00 | Tfa-(iBu)Y-I-PalMe(3)-NH2 (peptide)
43 | > 4.00 | Tfa-(iBu)Y-I-R-NH2 (peptide)
44 | > 4.00 | Tfa-(iBu)Y-I-R-OH (peptide)
45 | > 4.00 | Tfa-Y-Chg-R-NH2 (peptide)
46 | > 4.00 | Tos-Tyr-Ile-Arg-NH2
47 | > 4.00 | Y-I-R-NH2 (peptide)
48 | > 4.00 | pAph-Chg-Arg-Leu-Pro-NH2 (peptide)
49 | > 4.00 | pal-I-R-C(SBut)-Hyp-NH2 (peptide)
50 | > 4.00 | y-Chg-R-L-NH2 (peptide)
51 | > 4.00 | y-Chg-R-NH2 (peptide)
52 | > 4.00 | y-I-R-NH2 (peptide)
53 | > 4.00 | y-Tle-R-Nle-P-NH2 (peptide)

molecular target: human factor Xa (Enzyme Research Laboratories, Inc.) (human) (UniProt P00742); test: chromogenic enzyme inhibition, IC50 corrected for substrate

Row | pKi | Substance
54 | 5.70 | TENSTOP (N-alpha-tosyl-Gly-p-amidinophenylalanine methyl ester)

molecular target: human thrombin (Enzyme Research Laboratories, Inc.) (human) (UniProt P00734); test: as above

Row | pKi | Substance
55 | 5.70 | TENSTOP (N-alpha-tosyl-Gly-p-amidinophenylalanine methyl ester)
